These results are taken from publication PMC9629070 (Autophagy, 2022).

Holding throughout (experiment): pull-down
Assay [1] addresses T1, GST-ATG6 (Arabidopsis thaliana, UniProt Q9M367 1-517).
T1 sequence (looked up): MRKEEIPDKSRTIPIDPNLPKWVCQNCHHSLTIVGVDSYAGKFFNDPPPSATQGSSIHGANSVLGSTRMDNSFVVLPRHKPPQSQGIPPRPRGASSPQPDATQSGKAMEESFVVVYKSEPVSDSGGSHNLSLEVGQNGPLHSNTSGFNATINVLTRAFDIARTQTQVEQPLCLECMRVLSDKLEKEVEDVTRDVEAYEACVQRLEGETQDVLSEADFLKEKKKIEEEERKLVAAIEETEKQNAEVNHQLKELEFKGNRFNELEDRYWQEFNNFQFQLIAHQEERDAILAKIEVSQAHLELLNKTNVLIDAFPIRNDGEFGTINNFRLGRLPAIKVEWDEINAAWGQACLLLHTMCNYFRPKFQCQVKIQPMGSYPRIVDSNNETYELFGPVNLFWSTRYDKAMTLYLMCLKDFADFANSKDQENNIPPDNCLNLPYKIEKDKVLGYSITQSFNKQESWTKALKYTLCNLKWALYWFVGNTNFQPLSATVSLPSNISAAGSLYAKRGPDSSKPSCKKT

The target in assay [2] is GAPC1-His (Arabidopsis thaliana, UniProt P25858 1-338).
Assay [3] addresses GAPC2-His (Arabidopsis thaliana, UniProt Q9FX54 1-338).

Chain of GAPC1-His (P25858 whole entry): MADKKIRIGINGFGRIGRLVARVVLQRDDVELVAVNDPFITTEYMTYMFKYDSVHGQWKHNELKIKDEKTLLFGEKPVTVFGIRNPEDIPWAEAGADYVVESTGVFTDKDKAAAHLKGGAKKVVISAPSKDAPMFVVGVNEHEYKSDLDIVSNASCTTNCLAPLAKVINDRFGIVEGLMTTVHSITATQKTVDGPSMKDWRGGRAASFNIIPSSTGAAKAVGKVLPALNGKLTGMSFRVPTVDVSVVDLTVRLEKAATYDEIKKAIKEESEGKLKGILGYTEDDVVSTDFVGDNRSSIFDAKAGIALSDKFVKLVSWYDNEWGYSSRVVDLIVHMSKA
Chain of GAPC2-His (Q9FX54 whole entry): as the sequence (P25858 whole entry) above, with N61H, I65V, E68D, A92G, Y98F, A227S, L274M counted along it

B1: PGK3-His (natural protein, Arabidopsis thaliana, UniProt Q9SAJ4 1-401, looked up)
chain: MATKRSVGTLKEADLKGKSVFVRVDLNVPLDDNSNITDDTRIRAAVPTIKYLMGNGSRVVLCSHLGRPKGVTPKYSLKPLVPRLSELLGVEVVMANDSIGEEVQKLVAGLPEGGVLLLENVRFYAEEEKNDPEFAKKLAALADVYVNDAFGTAHRAHASTEGVAKFLKPSVAGFLMQKELDYLVGAVANPKKPFAAIVGGSKVSTKIGVIESLLNTVDILLLGGGMIFTFYKAQGLSVGSSLVEEDKLDLAKSLMEKAKAKGVSLLLPTDVVIADKFAPDANSKIVPATAIPDGWMGLDIGPDSIKTFSEALDTTKTIIWNGPMGVFEFDKFAAGTEAVAKQLAELSGKGVTTIIGGGDSVAAVEKVGLADKMSHISTGGGASLELLEGKPLPGVLALDEA
With B1, the binding result in assay [1] is reported as “binds”.

B2: GST-ATG3 (natural protein, Arabidopsis thaliana, UniProt Q0WWQ1 1-313, looked up)
chain: MVLSQKLHEAFKGTVERITGPRTISAFKEKGVLSVSEFVLAGDNLVSKCPTWSWESGDASKRKPYLPSDKQFLITRNVPCLRRAASVAEDYEAAGGEVLVDDEDNDGWLATHGKPKDKGKEEDNLPSMDALDINEKNTIQSIPTYFGGEEDDDIPDMEEFDEADNVVENDPATLQSTYLVAHEPDDDNILRTRTYDLSITYDKYYQTPRVWLTGYDESRMLLQPELVMEDVSQDHARKTVTIEDHPHLPGKHASVHPCRHGAVMKKIIDVLMSRGVEPEVDKYLFLFLKFMASVIPTIEYDYTMDFDLGSSST
With B2, the binding result in assay [2] and in assay [3] was “binds” each time.
